Biological target: T1, GST-CTD (C-terminal domain of HIV-1 integrase, aa 201-288) (HIV-1 (Hx3B), UniProt P04585 1348-1435)
T1 construct: Integrase (IN) of HIV-1, C-terminal domain aa 201-288; template HIV-1 Hx3B DNA (P04585 is isolate HXB2); also called IN-CTD; GST-IN-CTD(aa 201-288); source: pGEX3xPL construct; on glutathione sepharose 4B beads (pull-down) or as GST-tagged protein (AlphaScreen)
Test: AlphaScreen or HTRF; competition: GST-CTD (0.03 uM) with Bio-TAR RNA (0.1 uM), increasing INI1(183-304) as third component; low salt; four-parameter dose-response fit
Conditions: both partners purified

B1: His6-SUMO-INI1_(183-304) (domain or fragment, UniProt Q12824 183-304, looked up)
chain: PEVLVPIRLDMEIDGQKLRDAFTWNMNEKLMTPEMFSEILCDDLDLNPLTFVPAIASAIRQQIESYPTDSILEDQSDQRVIIKLNIHVGNISLVDQFEWDMSEKENSPEKFALKLCSELGLG
notes: INI1/SMARCB1, residues 183-304 (Rpt1, linker and part of Rpt2); Vector pET28a-h6-smt3; also called 6His-SUMO-INI1_(183-304); source: E. coli; clarified bacterial cell lysate for the pull-down
IC50: ~5 nM
